Test results from US20110046070A1, “GENE EXPRESSION INHIBITOR SELECTIVE FOR MATRIX METALLOPROTEINASE-9 GENE” (priority 2008, published 2011).

Experiment: Tissue distribution of fluorescently labeled polyamide
Assay type: in vivo
Details: 7.5 mg/kg tail vein, mice
Protocol: On day 1 (24 hours), day 6 and day 21 after the intravenous injection, the mice were dissected, and each tissue of the livers, the spleens and the kidneys was collected and prepared into frozen sections, which were then fixed in 4% paraformaldehyde for 30 minutes.

CN(C)CCCNC(=O)CCNC(=O)c1cc(NC(=O)c2cc(NC(=O)CCNC(=O)c3nc(NC(=O)c4nc(NC(=O)CCCNC(=O)c5cc(NC(=O)c6cc(NC(=O)CCNC(=O)c7cc(NC(=O)c8cc(NC(=O)CCNC(=S)Nc9ccc(-c%10c%11ccc(=O)cc-%11oc%11cc(O)ccc%10%11)c(C(=O)O)c9)cn8C)cn7C)cn6C)cn5C)cn4C)cn3C)cn2C)cn1C [HMMP9NFκβ-FITC]
incorporation in the nuclei of liver and kidney cells (after 1 day): A large number | incorporation in the nuclei of spleen cells (after 1 day): also incorporated in the nuclei of spleen cells | FITC fluorescence in tissue (after 6 days): strong FITC fluorescence was observed | FITC fluorescence intensity in the cells of each tissue (after 21 days): remarkably attenuated
